Patent publication US9192657B2

Assays:
[1] = target: T1, PAR-1 N-terminal tail peptide (TR33-62) (artificial)
T1 sequence (peptide): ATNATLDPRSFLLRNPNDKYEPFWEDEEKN

[2] = target: T1, PAR-1 N-terminal tail peptide (TR33-62) (artificial); remark: listed apart in the source
[3] = target: endothelial protein C receptor (EPCR) on cells (Homo sapiens (Human)) (UniProt Q9UNN8)
[4] = target: endothelial protein C receptor (EPCR), as in the binding assays (Homo sapiens (Human)) (UniProt Q9UNN8); experiment: apparent Kd; binding to immobilized soluble EPCR and to K293 cells transfected with wtEPCR (format of the value not told)

Substance: S360A-APC (enzyme)
- PAR-1 peptide (TR33-62) cleavage (% rwt-APC), catalytic efficiency by HPLC [1]: < 3 % rwt-APC

Substance: recombinant wild-type activated protein C (enzyme)
- cleavage of the TR33-62 peptide at Arg41, HPLC (fold lower kcat/Km than thrombin) [2]: 25000

Substance: RR229/230AA-APC (enzyme)
- PAR-1 peptide (TR33-62) cleavage (% rwt-APC), catalytic efficiency by HPLC [1]: 116 % rwt-APC

Substance: PTGla-APC (APC with prothrombin residues 1-46) (from UniProt P00734) (enzyme)
- concentration for half-maximal inhibition of staurosporine-induced endothelial apoptosis (fold higher concentration) [3]: 24
- Kd [4]: > 300 nM
